Patent US20070243194A1

Key:
[1] = biological target: human IGF-1R on cells (human) (UniProt P08069); assay: flow cytometry on MCF-7 cells, FITC anti-mouse IgG; x axis is log Ab conc. (nM)
[2] = biological target: human IGF-1R(1-902)-His10 (human) (UniProt P08069); assay: ELISA on plates coated with rh-IGF-1R, HRPO anti-mouse IgG Fc [a]
Chain of human IGF-1R(1-902)-His10 (human) (P08069 other isoform, or with tags, fused parts or gaps): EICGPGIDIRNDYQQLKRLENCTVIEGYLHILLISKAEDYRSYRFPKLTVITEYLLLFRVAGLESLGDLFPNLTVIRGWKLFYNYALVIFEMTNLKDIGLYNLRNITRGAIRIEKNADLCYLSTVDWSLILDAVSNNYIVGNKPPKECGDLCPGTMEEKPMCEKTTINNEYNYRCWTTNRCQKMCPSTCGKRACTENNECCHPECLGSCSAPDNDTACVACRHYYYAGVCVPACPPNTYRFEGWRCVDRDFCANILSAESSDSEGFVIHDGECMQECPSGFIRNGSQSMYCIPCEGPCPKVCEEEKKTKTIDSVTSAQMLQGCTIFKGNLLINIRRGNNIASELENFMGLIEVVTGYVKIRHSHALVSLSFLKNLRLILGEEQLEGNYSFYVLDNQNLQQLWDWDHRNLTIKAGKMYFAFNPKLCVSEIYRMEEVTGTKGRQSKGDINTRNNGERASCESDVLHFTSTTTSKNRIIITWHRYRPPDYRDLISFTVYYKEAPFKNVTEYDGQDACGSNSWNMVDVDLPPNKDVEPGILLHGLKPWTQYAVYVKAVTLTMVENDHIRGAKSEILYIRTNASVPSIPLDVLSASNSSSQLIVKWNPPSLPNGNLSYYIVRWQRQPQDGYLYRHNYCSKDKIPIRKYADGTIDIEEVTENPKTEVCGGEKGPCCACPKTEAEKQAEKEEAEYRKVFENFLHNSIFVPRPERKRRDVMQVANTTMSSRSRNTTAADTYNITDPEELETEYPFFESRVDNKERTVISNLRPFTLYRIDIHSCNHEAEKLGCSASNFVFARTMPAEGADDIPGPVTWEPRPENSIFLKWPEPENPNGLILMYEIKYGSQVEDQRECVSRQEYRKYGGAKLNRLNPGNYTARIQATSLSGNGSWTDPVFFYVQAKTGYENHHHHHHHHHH

Chain of human IGF-1R on cells (human) (P08069 31-740, chain 1 of 2): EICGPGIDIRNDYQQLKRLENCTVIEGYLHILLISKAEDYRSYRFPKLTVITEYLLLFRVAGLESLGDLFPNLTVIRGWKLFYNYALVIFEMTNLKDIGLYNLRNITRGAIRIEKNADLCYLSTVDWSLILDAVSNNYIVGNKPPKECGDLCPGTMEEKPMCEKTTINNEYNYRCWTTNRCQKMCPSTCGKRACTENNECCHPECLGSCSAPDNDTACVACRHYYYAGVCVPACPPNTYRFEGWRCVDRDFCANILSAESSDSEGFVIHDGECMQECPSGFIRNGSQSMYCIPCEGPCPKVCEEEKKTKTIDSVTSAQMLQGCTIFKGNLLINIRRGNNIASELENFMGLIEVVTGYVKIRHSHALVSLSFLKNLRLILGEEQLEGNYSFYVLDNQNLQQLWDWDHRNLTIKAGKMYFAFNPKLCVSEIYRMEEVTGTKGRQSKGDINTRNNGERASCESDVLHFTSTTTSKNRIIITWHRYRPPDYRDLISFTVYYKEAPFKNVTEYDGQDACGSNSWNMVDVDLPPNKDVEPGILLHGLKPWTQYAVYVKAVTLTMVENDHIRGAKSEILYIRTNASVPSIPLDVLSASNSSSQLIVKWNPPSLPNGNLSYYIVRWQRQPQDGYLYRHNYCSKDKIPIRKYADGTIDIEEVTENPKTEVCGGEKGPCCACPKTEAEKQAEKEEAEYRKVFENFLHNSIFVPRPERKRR
Chain of human IGF-1R on cells (human) (P08069 741-1367, chain 2 of 2): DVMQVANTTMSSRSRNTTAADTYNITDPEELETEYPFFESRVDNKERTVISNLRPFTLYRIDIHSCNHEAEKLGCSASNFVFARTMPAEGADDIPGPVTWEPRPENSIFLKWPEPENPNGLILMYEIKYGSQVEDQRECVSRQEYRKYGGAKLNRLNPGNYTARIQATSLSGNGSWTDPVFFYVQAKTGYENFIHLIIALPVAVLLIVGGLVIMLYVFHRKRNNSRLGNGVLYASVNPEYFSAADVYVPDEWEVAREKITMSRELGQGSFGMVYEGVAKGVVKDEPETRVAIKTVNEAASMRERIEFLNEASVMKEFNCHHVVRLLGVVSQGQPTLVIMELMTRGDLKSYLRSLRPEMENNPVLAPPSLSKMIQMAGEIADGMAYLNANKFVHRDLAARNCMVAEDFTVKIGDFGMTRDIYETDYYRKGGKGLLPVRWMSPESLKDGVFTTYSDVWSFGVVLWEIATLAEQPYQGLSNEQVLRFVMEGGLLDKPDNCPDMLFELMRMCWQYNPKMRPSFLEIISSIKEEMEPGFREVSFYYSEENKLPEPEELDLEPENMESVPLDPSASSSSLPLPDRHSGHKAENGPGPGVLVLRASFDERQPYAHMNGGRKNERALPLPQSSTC

EC50 (read off the curve) [1]: 5 nM
EC50 (read off the curve) [2]: 0.2 nM
Substance: IR3 (antibody)
